Reference: IntAct's records for PubMed 11056176

B1: snRNA-activating protein complex subunit 4 (Homo sapiens), Q5SXM2 (parent)
chain: MDVDAEREKITQEIKELERILDPGSSGSHVEISESSLESDSEADSLPSEDLDPADPPISEEERWGEASNDEDDPKDKTLPEDPETCLQLNMVYQEVIQEKLAEANLLLAQNREQQEELMRDLAGSKGTKVKDGKSLPPSTYMGHFMKPYFKDKVTGVGPPANEDTREKAAQGIKAFEELLVTKWKNWEKALLRKSVVSDRLQRLLQPKLLKLEYLHQKQSKVSSELERQALEKQGREAEKEIQDINQLPEEALLGNRLDSHDWEKISNINFEGSRSAEEIRKFWQNSEHPSINKQEWSREEEERLQAIAAAHGHLEWQKIAEELGTSRSAFQCLQKFQQHNKALKRKEWTEEEDRMLTQLVQEMRVGSHIPYRRIVYYMEGRDSMQLIYRWTKSLDPGLKKGYWAPEEDAKLLQAVAKYGEQDWFKIREEVPGRSDAQCRDRYLRRLHFSLKKGRWNLKEEEQLIELIEKYGVGHWAKIASELPHRSGSQCLSKWKIMMGKKQGLRRRRRRARHSVRWSSTSSSGSSSGSSGGSSSSSSSSSEEDEPEQAQAGEGDRALLSPQYMVPDMDLWVPARQSTSQPWRGGAGAWLGGPAASLSPPKGSSASQGGSKEASTTAAAPGEETSPVQVPARAHGPVPRSAQASHSADTRPAGAEKQALEGGRRLLTVPVETVLRVLRANTAARSCTQKEQLRQPPLPTSSPGVSSGDSVARSHVQWLRHRATQSGQRRWRHALHRRLLNRRLLLAVTPWVGDVVVPCTQASQRPAVVQTQADGLREQLQQARLASTPVFTLFTQLFHIDTAGCLEVVRERKALPPRLPQAGARDPPVHLLQASSSAQSTPGHLFPNVPAQEASKSASHKGSRRLASSRVERTLPQASLLASTGPRPKPKTVSELLQEKRLQEARAREATRGPVVLPSQLLVSSSVILQPPLPHTPHGRPAPGPTVLNVPLSGPGAPAAAKPGTSGSWQEAGTSAKDKRLSTMQALPLAPVFSEAEGTAPAASQAPALGPGQISVSCPESGLGQSQAPAASRKQGLPEAPPFLPAAPSPTPLPVQPLSLTHIGGPHVATSVPLPVTWVLTAQGLLPVPVPAVVSLPRPAGTPGPAGLLATLLPPLTETRAAQGPRAPALSSSWQPPANMNREPEPSCRTDTPAPPTHALSQSPAEADGSVAFVPGEAQVAREIPEPRTSSHADPPEAEPPWSGRLPAFGGVIPATEPRGTPGSPSGTQEPRGPLGLEKLPLRQPGPEKGALDLEKPPLPQPGPEKGALDLGLLSQEGEAATQQWLGGQRGVRVPLLGSRLPYQPPALCSLRALSGLLLHKKALEHKATSLVVGGEAERPAGALQASLGLVRGQLQDNPAYLLLRARFLAAFTLPALLATLAPQGVRTTLSVPSRVGSESEDEDLLSELELADRDGQPGCTTATCPIQGAPDSGKCSASSCLDTSNDPDDLDVLRTRHARHTRKRRRLV
partner: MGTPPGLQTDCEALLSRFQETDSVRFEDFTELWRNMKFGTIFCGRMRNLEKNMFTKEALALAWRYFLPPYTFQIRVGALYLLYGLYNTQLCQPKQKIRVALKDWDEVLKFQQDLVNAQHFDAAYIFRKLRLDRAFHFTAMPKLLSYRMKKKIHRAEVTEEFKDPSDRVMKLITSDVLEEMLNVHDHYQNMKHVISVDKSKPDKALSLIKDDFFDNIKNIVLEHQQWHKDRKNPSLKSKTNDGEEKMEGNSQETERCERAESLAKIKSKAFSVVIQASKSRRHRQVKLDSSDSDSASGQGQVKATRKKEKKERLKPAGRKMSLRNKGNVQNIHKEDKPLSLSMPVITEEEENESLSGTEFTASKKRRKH
B2: snRNA-activating protein complex subunit 4 (Homo sapiens), Q5SXM2 (parent)
chain: B1 chain
partner: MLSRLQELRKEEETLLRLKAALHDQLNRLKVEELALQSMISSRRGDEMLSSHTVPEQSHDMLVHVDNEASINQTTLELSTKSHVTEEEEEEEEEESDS
B3: snRNA-activating protein complex subunit 5 (Homo sapiens), O75971 (parent)
chain: B2 partner
partner: B1 chain

Variants of: B1
Conditions: with snpc1_human SNAPC1, Q16533

| Variant | effect of a mutation on the interaction |
| --- | --- |
| L1314A | disrupting interaction strength |
| L1311A | decreasing interaction strength |
| L1369A | decreasing interaction strength |
| L1364A | disrupting interaction strength |
| L1301A;L1308A | decreasing interaction strength |
| L1355A;L1362A | disrupting interaction strength |
| L1297A;Q1304A | with no effect |

Variants of: B2
Conditions: with snpc5_human SNAPC5, O75971

| Variant | effect of a mutation on the interaction |
| --- | --- |
| L89A;V96A | decreasing interaction strength |
| L87A;Q94A | disrupting interaction strength |
| Q115L | disrupting interaction strength |
| Q115A;L122A | disrupting interaction strength |
| Q94A | disrupting interaction strength |
| Q94L | disrupting interaction strength |
| L101A;L108A | disrupting interaction strength |

Variants of: B3
Conditions: with snpc4_human SNAPC4, Q5SXM2

| Variant | effect of a mutation on the interaction |
| --- | --- |
| MLSRLQELRKEEETALRLKAAAHDQLNRLKVEELALQSMISSRRGDEMLSSHTVPEQSHDMLVHVDNEASINQTTLELSTKSHVTEEEEEEEEEESDS [L15A;L22A] | disrupting interaction strength |
| MLSRLQELRKEEETLLRLKAALHDQLNRAKVEELAAQSMISSRRGDEMLSSHTVPEQSHDMLVHVDNEASINQTTLELSTKSHVTEEEEEEEEEESDS [L29A;L36A] | disrupting interaction strength |
| MLSRLQEARKEEETLLRLKAALHDQLNRLKVEELALQSMISSRRGDEMLSSHTVPEQSHDMLVHVDNEASINQTTLELSTKSHVTEEEEEEEEEESDS [L8A] | decreasing interaction strength |
| MLSRLQELRKEEETLLRAKAALHDQLNRLKVEELALQSMISSRRGDEMLSSHTVPEQSHDMLVHVDNEASINQTTLELSTKSHVTEEEEEEEEEESDS [L18A] | decreasing interaction strength |
